The Kd is the free concentration of one partner at which half of the binding sites on the other are occupied at equilibrium, for simple one-to-one binding.

From article PMC4156907 (Molecular cell, 2014) come the findings set out here.

One data set deals with T1, LGP2 (UniProt Q96C10 1-678).
T1 sequence: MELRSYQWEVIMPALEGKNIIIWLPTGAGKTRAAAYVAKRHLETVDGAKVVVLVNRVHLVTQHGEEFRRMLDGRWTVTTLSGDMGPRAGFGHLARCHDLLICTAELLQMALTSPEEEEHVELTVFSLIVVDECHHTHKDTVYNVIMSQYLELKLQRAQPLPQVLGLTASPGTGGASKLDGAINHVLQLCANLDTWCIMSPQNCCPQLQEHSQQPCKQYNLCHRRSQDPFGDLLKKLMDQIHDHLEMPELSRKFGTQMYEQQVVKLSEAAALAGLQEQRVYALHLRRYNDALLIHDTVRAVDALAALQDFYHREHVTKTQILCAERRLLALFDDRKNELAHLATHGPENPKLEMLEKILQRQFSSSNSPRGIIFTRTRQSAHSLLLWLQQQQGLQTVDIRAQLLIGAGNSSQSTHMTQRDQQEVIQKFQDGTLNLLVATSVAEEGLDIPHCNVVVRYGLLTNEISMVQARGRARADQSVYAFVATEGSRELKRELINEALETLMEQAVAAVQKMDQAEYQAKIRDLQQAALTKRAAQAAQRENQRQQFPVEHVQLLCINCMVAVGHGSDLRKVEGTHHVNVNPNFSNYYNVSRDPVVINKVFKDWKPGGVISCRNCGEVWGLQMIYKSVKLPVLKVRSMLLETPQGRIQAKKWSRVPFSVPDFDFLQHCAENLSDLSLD
Put plainly: single-molecule TIRF.

For data set [1], the target named is T2, MDA5-C (UniProt Q9BYX4 295-1025).
T2 sequence: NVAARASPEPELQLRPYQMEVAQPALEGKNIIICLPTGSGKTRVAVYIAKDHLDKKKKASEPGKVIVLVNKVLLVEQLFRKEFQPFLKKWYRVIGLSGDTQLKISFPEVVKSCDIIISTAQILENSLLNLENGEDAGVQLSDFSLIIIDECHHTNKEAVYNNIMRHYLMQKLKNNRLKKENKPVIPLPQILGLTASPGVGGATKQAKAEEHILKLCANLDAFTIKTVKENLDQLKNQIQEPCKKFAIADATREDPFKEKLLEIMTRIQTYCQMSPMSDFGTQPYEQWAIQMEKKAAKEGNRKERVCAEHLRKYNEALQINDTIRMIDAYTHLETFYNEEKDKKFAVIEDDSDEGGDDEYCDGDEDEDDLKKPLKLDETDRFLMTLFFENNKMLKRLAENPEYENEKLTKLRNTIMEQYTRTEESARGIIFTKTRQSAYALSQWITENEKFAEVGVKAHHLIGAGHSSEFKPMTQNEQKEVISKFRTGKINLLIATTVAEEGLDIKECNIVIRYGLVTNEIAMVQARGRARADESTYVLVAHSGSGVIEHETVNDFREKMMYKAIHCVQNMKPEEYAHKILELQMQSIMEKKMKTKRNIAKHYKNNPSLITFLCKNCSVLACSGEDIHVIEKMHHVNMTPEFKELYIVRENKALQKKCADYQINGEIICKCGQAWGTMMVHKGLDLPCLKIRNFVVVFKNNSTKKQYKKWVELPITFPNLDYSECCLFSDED
Description: single-molecule TIRF.

Data set [2] addresses T2, MDA5-C. Put plainly: single-molecule TIRF. The source holds these as a separate data set.
Data set [3] addresses T3, MDA5 (full length, FLAG-tagged) (UniProt Q9BYX4 1-1025).
T3 sequence (looked up): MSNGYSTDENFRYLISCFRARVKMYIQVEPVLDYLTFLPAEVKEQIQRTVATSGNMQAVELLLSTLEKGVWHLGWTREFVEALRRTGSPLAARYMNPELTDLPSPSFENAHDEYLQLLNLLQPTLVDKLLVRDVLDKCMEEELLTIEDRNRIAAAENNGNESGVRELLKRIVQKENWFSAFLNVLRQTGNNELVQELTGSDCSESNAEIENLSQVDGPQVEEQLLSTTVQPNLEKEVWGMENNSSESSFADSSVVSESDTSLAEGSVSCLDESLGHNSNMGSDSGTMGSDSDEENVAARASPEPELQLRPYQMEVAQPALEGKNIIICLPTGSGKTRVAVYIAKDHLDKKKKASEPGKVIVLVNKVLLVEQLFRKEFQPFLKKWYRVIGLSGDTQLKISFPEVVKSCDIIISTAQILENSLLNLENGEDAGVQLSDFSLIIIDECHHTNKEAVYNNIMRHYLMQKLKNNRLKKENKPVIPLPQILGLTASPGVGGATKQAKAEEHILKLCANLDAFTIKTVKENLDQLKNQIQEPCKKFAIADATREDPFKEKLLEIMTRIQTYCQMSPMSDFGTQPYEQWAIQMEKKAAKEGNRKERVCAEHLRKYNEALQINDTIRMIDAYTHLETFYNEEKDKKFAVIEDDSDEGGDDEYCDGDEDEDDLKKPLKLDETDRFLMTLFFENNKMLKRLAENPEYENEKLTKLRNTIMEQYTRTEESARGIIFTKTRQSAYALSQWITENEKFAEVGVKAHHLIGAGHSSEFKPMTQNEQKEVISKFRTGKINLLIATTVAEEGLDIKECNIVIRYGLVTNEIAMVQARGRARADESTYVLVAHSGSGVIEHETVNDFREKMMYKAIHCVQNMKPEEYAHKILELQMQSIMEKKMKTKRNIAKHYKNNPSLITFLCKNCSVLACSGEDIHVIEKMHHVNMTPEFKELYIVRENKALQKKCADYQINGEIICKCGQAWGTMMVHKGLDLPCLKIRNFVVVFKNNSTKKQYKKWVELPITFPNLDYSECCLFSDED
Description: co-IP.

Like-named read-outs stand apart in the source and are kept apart here.

B1: 44bp dsRNA (dsRNA)
RNA 1: CGAGCAGACUGGCAAUCCGGAUCUCCCAGGCCCGGCUUUCAAGC
RNA 2: GCUUGAAAGCCGGGCCUGGGAGAUCCGGAUUGCCAGUCUGCUCG
modifications: strand 2 5' amino modifier C6 (5AmMC6)
Regarding B1, the Kd is 56.1 ± 10 nM in the data set with LGP2, 326 ± 138 nM with MDA5-C [1] and 771 ± 207 nM with MDA5-C [2].

B2: LGP2 (FLAG-tagged) (natural protein, UniProt Q96C10 1-678, looked up)
chain: T1 sequence
As to B2, the “fold increase of co-precipitated LGP2 with poly(I:C) against without poly(I:C)” value in data set [3] is above 3 fold.
